Here are results for one molecule from publication PMC4176161.

Assay [1] has as its target T1, …3 (SEP3) (Arabidopsis thaliana), O22456.
T1 chain: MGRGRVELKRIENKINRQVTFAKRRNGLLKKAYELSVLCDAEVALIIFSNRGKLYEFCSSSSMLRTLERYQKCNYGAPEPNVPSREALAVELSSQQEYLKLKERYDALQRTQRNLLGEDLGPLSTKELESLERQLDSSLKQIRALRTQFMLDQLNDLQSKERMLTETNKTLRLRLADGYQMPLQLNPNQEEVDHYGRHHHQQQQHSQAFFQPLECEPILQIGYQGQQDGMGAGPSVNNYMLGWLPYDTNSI
Kind of assay: native gel or EMSA. The following applies: remark: other sources report otherwise. On the technique in general: In EMSA bound probe runs differently from free probe, usually more slowly.

Assay [2] has the same target. Kind of assay: native gel or EMSA. As to conditions: remark: other sources report otherwise.

As a reminder, the stoichiometry N is the number of molecules, sites or subunits per partner or assembly.

B1: …3 (SEP3), O22456 1-251 (natural protein)
chain: T1 chain
In the case of B1, the stoichiometry N was 2 in assay [1] and 4 in assay [2].
